We go through 84 variants from the RNAGym collection of RNA variant scans (doi:10.1101/gr.219683.116).

The chains are these.
B1: mRNA-splicing (parent)
chain: AGUUGCUGCUGGGAGCUCCAGCACAGUGAAAUGGACAGAAGGGCAGAGCAA

In this data set the parent is B1. Briefly: exon inclusion enrichment index; higher = more inclusion; WT1 exon 5 minigene, HEK293.
For the variant U4A G5C C6A U7C G8A U10A, the “exon inclusion enrichment index” value was 0.0584. As for U4C G5A C6U U7A G8U C9A, the figure is 0.47; as for A40U G41A, 0.00196. Regarding A40U G41U, the “exon inclusion enrichment index” value is 0.0512. As for G5U G8U C9U A20U G21A, the figure is 0.0475; as for G5U G8U C9U A23G, 0.252. The value for G5U G8U C9U A47G G48C was 0.0267. As for C6A U7C C9A U10C G12C G13A, the figure is 2.55; as for G5A C6U U7A G8U C9A G41A G42C, 0.172. In the case of C19U A20G, the “exon inclusion enrichment index” value is 0.684. The value for C6A U7A C9A U10A G26U U27G was 1.76.

As for G5C C6A U7C G8A U10A C18G C19G, the “exon inclusion enrichment index” value amounted to 0.186. In the case of C6A U7A C9A U10A U27G G28A, the “exon inclusion enrichment index” value worked out at 0.869. For the variant G5C C6A U7C G8A U10A U32A G33A, the “exon inclusion enrichment index” value turned out to be 0.0122. With G5A U7C G8C C9A U10C, the “exon inclusion enrichment index” value was determined as 1.56. As for G5A C6A U7C C9A, the figure is 0.838; as for G5C C6U U7C G8A C9U U10C, 1.99; as for G5C C6G U7C U10C U32A, 3.12.

On to G5C C6U G8C C9U U10C G11U G12C, for which the “exon inclusion enrichment index” value worked out at 0.558. The value for G5U C6G G8U C9U was 0.0807; that for A23C C24G was 2.29; that for G5A U7C G8A U10C C19G A20U was 2.09. The value for G5C C6U G8C C9U U10C G26C U27A was 2.14; that for G2C U3A C6A U7C C9A U10C was 2.73; that for U7C was 0.538. As for G5A U7C G8A U10C A35G C36U, the figure is 0.025; as for G5A U7C G8A U10C A35G C36G, 0.306. Take G5A C6U U7A G8U C9A C24A: the “exon inclusion enrichment index” value stood at 0.0667. Regarding G5A C6U U7A G8U C9A C24G, the “exon inclusion enrichment index” value was 0.0851. As for C6A U7A C9A U10A C36G, the “exon inclusion enrichment index” value was found to be 0.433.

With G5C C6A U7C G8A U10A G46A A47U, the “exon inclusion enrichment index” value came to 0.159. As for G5C C6U G8C C9U U10C C36U, the figure is 0.515; as for G5A C6G U7G C9A G26U U27G, 0.00474; as for G5A C6G U7G C9A G41U, 0.000489. As to G5C C6G U7C U10C A30G A31G, the “exon inclusion enrichment index” value turned out to be 1.71. As for C6A U7C C9A U10C G34A A35C, the figure is 2.52; as for G5C C6G U7C U10C A45U G46C, 2.33. As to C6A U7C C9A U10C A40G G41C, the “exon inclusion enrichment index” value is 3.6. The value for G5C C6A U7C G8A U10A A35C C36U was 0.0111; that for G5A C6U U7A G8U C9A C22G A23U was 0.00095.

As to G5A C6G U7G C9A G21U C22A, the “exon inclusion enrichment index” value stood at 0.00074. As for A31G U32G, the figure is 0.104; as for U10A G11A, 2.02; as for C6A U7C C9A U10C G42C G43U, 3.6. As for U4G G5U C6A U7C G8A U10A, the “exon inclusion enrichment index” value was 0.093. As for A30G, the figure is 0.182; as for G5C C6A G8C C9U U10C, 2.4; as for C6A U7A C9A U10A G41C, 2.07. Regarding G5A C6G U7G C9A G13A, the “exon inclusion enrichment index” value is 0.0025. On to G5C C6G G8C U10C, for which the “exon inclusion enrichment index” value worked out at 3.08.

For the variant G5A C6G U7G C9A A23U C24U, the “exon inclusion enrichment index” value worked out at 0.000744. The value for G15U C16A was 0.0156; that for G5A C6G U7G C9A A47C G48C was 0.00224; that for U4G G5A C6A U7C G8A U10A was 0.403. G5U G8U C9U A25C G26A: the “exon inclusion enrichment index” value is 0.504. For the variant G5U G8U C9U U10A G11U, the “exon inclusion enrichment index” value came to 0.0867. The value for G5C C6G U7C U10C C19U was 0.492; that for G5C C6U G8C C9U U10C A30U A31G was 2.12; that for G5A C6U U7A G8U C9A A35C C36G was 0.0383.

For G2C U3C G5A C6U U7A G8U C9A, the “exon inclusion enrichment index” value was 0.0956. The value for G5A C6U U7A G8U C9A C19A A20C was 0.0154. As to A45U G46C, the “exon inclusion enrichment index” value stood at 0.0947. The value for G5C C6A U7C G8A U10A G42U G43A was 0.386; that for G5A U7C G8A U10C G34A A35U was 0.813; that for G5A U7C G8A U10C A37C G38A was 2.05. Consider G5A U7C G8A U10C A37C G38C, for which the “exon inclusion enrichment index” value turned out to be 2.35. The value for G5A U7C G8A U10C U32G G33U was 0.923; that for G5C C6G U7C U10C G13A A14U was 2.93; that for G42A G43A was 1.43. The value for C6A U7C C9A U10C U32G was 0.701. Consider G5C C6G U7C U10G G11U, for which the “exon inclusion enrichment index” value was found to be 2.66. As for G5A C6U U7A G8U C9A G42U, the figure is 0.107; as for G5C C6U G8C C9U U10C A40U G41U, 0.94; as for G5U G8U C9U A29G A30U, 0.0242. As to G5A C6U U7A G8U C9A U17A, the “exon inclusion enrichment index” value was determined as 0.0566. The value for G5A U7C G8A U10C A30C A31C was 3.14.

Turning to G5A C6G U7G C9U U10G, the “exon inclusion enrichment index” value amounted to 0.493. The value for U4A G8U C9U was 0.0172; that for G5C C6U G8C C9U U10C U27G G28C was 1.04; that for C6A U7A C9A U10A A23U was 0.394. G5A C6G U7G C9A U32A G33C: the “exon inclusion enrichment index” value was 0.0011. Take G5C C6G U7C U10C G43A C44U: the “exon inclusion enrichment index” value was determined as 3.64. As for G5C C6U G8C C9U U10C G42A G43U, the figure is 3.86; as for G5C C6U G8C C9U U10C G21A C22A, 0.718.
